This note sets out measurements from patent publication US20220348650A1 (BIO THERA SOLUTIONS, published 2022).

Substitutions are numbered along the chain they refer to.

The target in test [1] is T1, full-length human TIGIT on the cell surface (Jurkat-hTIGIT 2E6, CTI-Jurkat, primary human CD3+ cells) (human, UniProt Q495A1 22-244).
T1 sequence (looked up): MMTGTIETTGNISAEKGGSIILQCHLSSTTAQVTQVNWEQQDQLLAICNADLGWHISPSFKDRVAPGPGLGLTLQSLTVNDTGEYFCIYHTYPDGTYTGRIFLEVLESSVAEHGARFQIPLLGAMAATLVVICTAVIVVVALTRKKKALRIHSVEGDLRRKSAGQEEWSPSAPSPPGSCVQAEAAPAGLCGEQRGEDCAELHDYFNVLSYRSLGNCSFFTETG
Nature of the test: cell-based or functional assay.

Test [2] concerns the target T2, human TIGIT (antigen of the ELISA and of the m10D8 Biacore assay; construct not stated) (human, UniProt Q495A1 22-141).
T2 sequence: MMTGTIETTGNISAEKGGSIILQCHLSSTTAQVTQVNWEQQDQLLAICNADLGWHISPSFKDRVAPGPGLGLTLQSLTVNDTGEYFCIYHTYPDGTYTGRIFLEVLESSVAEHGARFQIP
Put plainly: ELISA, binding to TIGIT (FIG. 11). In general terms: In an ELISA, binding on a coated surface is turned into a signal by an enzyme label.

Test [3] has as its target T2, human TIGIT (antigen of the ELISA and …). Put plainly: ELISA, binding to TIGIT (FIG. 12).
Test [4] has as its target T3, TIGIT-his tag antigen (UniProt Q495A1 22-141, limits assumed).
T3 construct: also called univalent TIGIT-his; not shown: his tag
T3 sequence (looked up): T2 sequence
Put plainly: SPR-Biacore, TIGIT-his tag antigen (second batch). Background: SPR reads the build-up and loss of mass on a sensor chip optically.

Test [5] has as its target T1, full-length human TIGIT on the cell …. Put plainly: binding to Jurkat-hTIGIT 2E6 cells, flow cytometry (FIG. 23).
The target in test [6] is T4, TIGIT-Fc fusion protein (human TIGIT extracellular region fused to human IgG1 constant region) (human). Nature of the test: competition ELISA, blocks PVR binding to TIGIT (method of Example 3).
Test [7] has as its target T1, full-length human TIGIT on the cell …. Put plainly: flow cytometry competition with 80 nM biotinylated PVR-Fc on Jurkat-hTIGIT cells. How it is done:
(§1) The antibody was serially two-fold diluted from 15 nM to the 10th concentration (including 0 nM). The 10 concentration gradients of antibody were separately transferred into 10 centrifuge tubes each containing 1×10⁶ Jurkat-hTIGIT cells. The cells were then resuspended, and the mixture was incubated at 4° C. for 1 hour. The cells were centrifuged. The supernatant was discarded and the cells were washed twice with PBS. The cells were resuspended in 100 μL of 1:2000 diluted streptavidin PE (Thermo, Cat. No.: 12-4317-87) and incubated at 4° C. for 40 minutes. The cells were centrifuged, and the supernatant was discarded. The cells were washed twice with PBS, resuspended in 200 μL of PBS, and were detected for fluorescent signal using a flow analyzer (mean FL2-A). Finally, the collected fluorescent signals were plotted by 4-parameter fitting for analysis, and the IC₅₀ was calculated.

For test [8] the target is unchanged. Nature of the test: flow cytometry on Jurkat-hTIGIT cells: antibody titrated against biotinylated PVR-Fc (blocked ligand), detected with streptavidin PE, mean FL2-A. How it is done: as §1
Test [9] addresses T2, human TIGIT (antigen of the ELISA and …). Nature of the test: ELISA, binding to TIGIT.
In test [10] the target is T3, TIGIT-his tag antigen. Nature of the test: SPR-Biacore, TIGIT-his tag antigen.
Test [11] has as its target T5, mouse TIGIT (mouse, UniProt P86176 29-148, limits assumed).
T5 sequence: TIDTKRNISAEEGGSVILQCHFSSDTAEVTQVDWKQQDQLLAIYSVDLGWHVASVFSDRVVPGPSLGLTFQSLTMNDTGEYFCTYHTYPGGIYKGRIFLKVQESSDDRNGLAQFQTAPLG
Nature of the test: ELISA on mouse TIGIT, OD450.

Test [12] addresses T4, TIGIT-Fc fusion protein (human TIGIT …). Put plainly: competition ELISA: TIGIT-Fc coated at 2 µg/mL, antibody titrated in 2 µg/mL PVR-Fc-bio (blocked ligand), OD450.
The target in test [13] is T3, TIGIT-his tag antigen. Nature of the test: SPR-Biacore; series 3.125 to 50 nM printed on the panel.
Test [14] has as its target T2, human TIGIT (antigen of the ELISA and …). Put plainly: Biacore SPR; antigen not given.

B1: h10D8OFKF (antibody, human IgG1, kappa, V domains shown)
VH: QVQLVESGGGVVQPGRSLRLDCKASGFTFSSYGMSWVRQAPGKGLELVATINSNGGSTYYPDSVKGRFTISRDNSKNTLFLQMNSLRAEDTAVYYCARLGTGTLGFAYWGQGTLVTVSS
VL: EIVMTQSPATLSLSPGERATLSCKASQDVKTAVSWYQQKPGQAPRLLIYWASTRATGIPARFSGSGSGTDYTLTISSLEPEDFAVYYCQQHYSTPWTFGQGTKVEIKR
modifications: fucose removed from the glycan (made in engineered CHO host cells)
Take B1: in [1], the “ADCC activity EC50” value came out at 0.0152 nM and the “ADCC activity, fold of h10D8OF” value is 8.8 times that of h10D8OF.

B2: h10D8OF (antibody, human IgG1, kappa, V domains shown)
VH: B1 VH
VL: B1 VL
notes: Humanized m10D8, second round; LCDR2 is the mutant WASTRAT; also called anti-TIGIT antibody h10D8OF
Usually EC50 stands for the concentration giving half of the maximal effect. A high value points to weaker potency. As usually defined, the Kd is the concentration at which binding is half-saturated. Read a high Kd as weaker binding. One may read the koff as the rate constant with which the complex falls apart. One may read the kon as a measure of how fast the partners come together. Read a low kon as slow association. Usually IC50 stands for the midpoint of a concentration-inhibition curve. Higher therefore signals a need for much substance. Turning to B2, in [1], the “ADCC activity EC50” value was found to be 0.125 nM. Further, the EC50 in test [2] was 0.0233 µg/mL; in [3] it was 0.0427 µg/mL; in [5], 0.696 nM. Besides, the affinity in [4], expressed as Kd, was 3.63 nM. For the same molecule, the koff in test [4] was determined as 0.00183 s⁻¹. The kon in [4] worked out at 502000 M⁻¹ s⁻¹. The concentration for half-maximal inhibition (IC50) was 0.159 µg/mL in [6], 11.3 nM in [7] and 0.656 nM in test [8].

B3: h10D8V4 (antibody, human IgG1, kappa, V domains shown)
VH: B1 VH with V5Q, V11L, R16G, D21S, K23A, S75A, F80Y
VL: DIVMTQSPSTLSASVGDRVTITCKASQDVKTAVSWYQQKPGQPPKLLIYWASTRHTGVPDRFSGSGSGTDYTLTISSLQAEDVAVYYCQQHYSTPWTFGQGTKVEIKR
For B3, a half-maximal response in test [2] (EC50) required 0.0256 µg/mL. For the same molecule, the 50% inhibitory concentration (IC50) turned out to be 0.217 µg/mL in test [6] and 15.8 nM in test [7].

B4: h10D8V3 (antibody, human IgG1, kappa, V domains shown)
VH: B1 VH with Q1E, V11L, R16G, D21S, K23A, F80Y
VL: B3 VL with V3Q, T10S, Q42K, P43A, D60S, A80P, V83F, V85T, Q100G
B4 returned a half-maximal effective concentration (EC50) in [9] of 0.0526 µg/mL. In [10], this molecule yielded a Kd of 14.1 nM, an off-rate (koff) of 0.00114 s⁻¹ and a kon of 81200 M⁻¹ s⁻¹.

B5: h10D8V5 (antibody, human IgG1, kappa, V domains shown)
VH: QVQLQESGGGLVQPGGSLRLSCAASGFTFSSYGMSWVRQNPDKRLELVATINSNGGSTYYPDSVKGRFTISRDNAKNTLYLQMNSLRAEDTAMYYCARLGTGTLGFAYWGQGTLVTVSS
VL: B3 VL with S9K, P43S, V85L, Q100G
Take B5: the EC50 in test [2] worked out at 0.0241 µg/mL. For the same molecule, the IC50 in test [6] is 0.284 µg/mL; in test [7], 10.4 nM.

B6: 10A7 antibody (hamster anti-mouse TIGIT antibody, positive control) (antibody, V domains shown)
VH: EVQLVESGGGLTQPGKSLKLSCEASGFTFSSFTMHWVRQSPGKGLEWVAFIRSGSGIVFYADAVRGRFTISRDNAKNLLFLQMNDLKSEDTAMYYCARRPLGHNTFDSWGQGTLVTVSS
VL: DIVMTQSPSSLAVSPGEKVTMTCKSSQSLYYSGVKENLLAWYQQKPGQSPKLLIYYASIRFTGVPDRFTGSGSGTDYTLTITSVQAEDMGQYFCQQGINNPLTFGDGTKLEIKR
notes: also called positive anti-TIGIT antibody (10A7)
The term EC50 (read off the curve) denotes the concentration at which the effect is half-maximal. Low readings indicate greater potency, high ones weaker potency. As to B6, the concentration for a half-maximal effect (EC50 (read off the curve)) in test [11] was ~0.02 µg/mL. Further, the half-inhibitory concentration (IC50) in [12] is 0.263 µg/mL.

B7: Tiragolumab (positive control antibody) (antibody, human IgG1, kappa, V domains shown)
VH: EVQLQQSGPGLVKPSQTLSLTCAISGDSVSSNSAAWNWIRQSPSRGLEWLGKTYYRFKWYSDYAVSVKGRITINPDTSKNQFSLQLNSVTPEDTAVFYCTRESTTYDLLAGPFDYWGQGTLVTVSS
VL: not shown
With B7, the EC50 was found to be 0.0536 µg/mL in test [3] and 1.91 nM in test [5]. Moreover, the dissociation constant Kd in [4] amounted to 0.113 nM; in test [13], 0.133 nM. Also, in [4], the koff came to 9.24e-05 s⁻¹. In addition, in test [4], the on-rate constant (kon) amounted to 818000 M⁻¹ s⁻¹. Moreover, the concentration for half-maximal inhibition (IC50) in [6] was 0.429 µg/mL; in test [8], 2.38 nM.

B8: recombinant mouse anti-human TIGIT antibody m10D8 (antibody, mouse IgG2a, V domains shown)
VH: B5 VH with Q1E, Q3K, R19K, N84S, R87K, A88S
VL: DIVMTQAHKFMSTSGGDRVSITCKASQDVKTAVSWYQQKPGQSPKLLIYWASTRHTGVPDRFTGSGSGTDYTLTISSVQAEDLALYYCQQHYSTPWTFGGGTKLEIKR
As to B8, in [11], the binding result is “no binding (tested: about 2 µg/mL)”. In test [14], this molecule came in with a Kd of 0.197 nM, a koff of 0.0002 s⁻¹ and an on-rate (kon) of 1.02e+06 M⁻¹ s⁻¹. The same molecule came in with a concentration for half-maximal inhibition (IC50) in test [12] of 0.273 µg/mL.

B9: h10D8V1 (antibody, human IgG1, kappa)
heavy: not shown
light: DIQMTQSPSTLSAFVGDTITITCKASQDVKTAVSWYQQKPGQPPKLLIYWASTRHTGVPDRFSGSGSGTDYTLTISSLQAEDVAVYYCQQHYSTPWTFGQGTKVDIKRTVAAPSVFIFPPSDEQLKSGTASVVCLLNNFYPREAKVQWKVDNALQSGNSQESVTEQDSKDSTYSLSSTLTLSKADYEKHKVYACEVTHQGLSSPVTKSFNRGEC
notes: Humanized m10D8, first round
In test [9], B9 displayed an EC50 of 0.0762 µg/mL. Also, in [10], the Kd turned out to be 2.18 nM, the koff came to 0.000446 s⁻¹ and the kon was found to be 205000 M⁻¹ s⁻¹.

B10: h10D8V2 (antibody, human IgG1, kappa)
heavy: not shown
light: B9 light
notes: Same variable regions as h10D8V1; differs at EU positions 356 and 358 of the constant region
B10 came in with a 50% effective concentration (EC50) in test [9] of 0.0924 µg/mL. For the same molecule, the midpoint of the response in [3], the EC50, lay at 0.0531 µg/mL. In [10], the dissociation constant (Kd) came to 2.55 nM, the koff turned out to be 0.000492 s⁻¹ and the kon was 193000 M⁻¹ s⁻¹. In [4], this molecule yielded a Kd of 0.468 nM, a koff of 0.00048 s⁻¹ and an association rate constant (kon) of 1.02e+06 M⁻¹ s⁻¹.
